# B1: full length human TRPML1 with the V432A/A433G mutations (natural protein, UniProt Q9GZU1 1-580, looked up)
# chain: MTAPAGPRGSETERLLTPNPGYGTQAGPSPAPPTPPEEEDLRRRLKYFFMSPCDKFRAKGRKPCKLMLQVVKILVVTVQLILFGLSNQLAVTFREENTIAFRHLFLLGYSDGADDTFAAYTREQLYQAIFHAVDQYLALPDVSLGRYAYVRGGGDPWTNGSGLALCQRYYHRGHVDPANDTFDIDPMVVTDCIQVDPPERPPPPPSDDLTLLESSSSYKNLTLKFHKLVNVTIHFRLKTINLQSLINNEIPDCYTFSVLITFDNKAHSGRIPISLETQAHIQECKHPSVFQHGDNSFRLLFDVVVILTCSLSFLLCARSLLRGFLLQNEFVGFMWRQRGRVISLWERLEFVNGWYILLVTSDVLTISGTIMKIGIEAKNLASYDVCSILLGTSTLLVWVGVIRYLTFFHNYNILIATLRVALPSVMRFCCCAGVIYLGYCFCGWIVLGPYHVKFRSLSMVSECLFSLINGDDMFVTFAAMQAQQGRSSLVWLFSQLYLYSFISLFIYMVLSLFIALITGAYDTIKHPGGAGAEESELQAYIAQCQDSPTSGKFRRGSGSACSLLCCCGRDPSEEHSLLVN
# Molecular target: the molecule itself
# Test: cryo-EM structure
protein,measurement,value
B1,binding result,binds

# Source: publication PMC12174366 (Nature Communications, 2025)
